Assay results as given in patent US6586222.

Biological target: 35S-cysteine-labelled 26 kD proTNFα (in vitro transcribed/translated)

B1: TNFα convertase purified from HL60 cell membrane fraction (identified as PR-3) (protein)
chain: IVGGHEAQPHSRPYMASLQMRGNPGSHFCGGTLIHPSFVLTAAHCLRDIPQRLVNVVLGAHNVRTQEPTQQHFSVAQVFLNNYDAENKLNDVLLIQLSSPANLSASVATVQLPQQDQPVPHGTQCLAMGWGRVGAHDPPAQVLQELNVTVVTFFCRPHNICTFVPRRKAGICFGDSGGPLICDGIIQGIDSFVIWGCATRLFPDFFTRVALYVDWIRSTLR
  cleavage of 26 kD proTNFα to the 17 kD mature form: The purified convertase was shown to cleave the 26 kD proTNFα to the 17 kD mature form.
